Drawing on article PMC3678298, “Catalytic preference of Salmonella typhimurium LT2 sialidase for N-acetylneuraminic acid residues over N-glycolylneuraminic acid residues^” (FEBS Open Bio, 2013), this text covers Km, kcat and kcat/Km for one substance.

In general, Km refers to the substrate concentration at which the rate is half of its maximum. As a reminder, the kcat is the number of substrate molecules converted per active site and unit of time at saturation. A word on the kcat/Km: it is the second-order rate constant that governs catalysis at low substrate concentration.

The subject of the data set is Cc1cc(=O)oc2cc(O[C@@]3(C(=O)O)C[C@H](O)[C@@H](NC(=O)CO)[C@H]([C@H](O)[C@H](O)CO)O3)ccc12. In words: purified protein. As to conditions: 80 mM sodium acetate pH 6.0, 80 mM NaCl, 0.8 mg/ml BSA, 37 °C, 10 mU/ml enzyme.

Excerpt: 4MU fluorescence; Lineweaver-Burk on STSA (Salmonella typhimurium LT2 sialidase)

On to “STSA (Salmonella typhimurium LT2 sialidase) (Salmonella enterica subsp. enterica serovar Typhimurium str. LT2)”, for which the Michaelis constant (Km) is recorded as 3.10 mM, the kcat is 40 s⁻¹ and the kcat/Km came out at 13100 M⁻¹ s⁻¹.
